# Data: US20120207760A1
# Experiments:
# [1] = molecular target: M2 protein of influenza A/Hong Kong/483/97 (H5N1) (Influenza A virus A/Hong Kong/483/97)
# [2] = molecular target: recombinant homotrimeric HA, A/California/4/09 H1N1 (Influenza A virus A/California/4/09 (H1N1)); assay: trimeric HA microarray, transfection set 5; conditions: remark: other sources report otherwise
# [3] = molecular target: recombinant homotrimeric HA, A/Japan/305/57 H2N2 (Influenza A virus A/Japan/305/57 (H2N2)); assay: trimeric HA microarray, transfection set 5; conditions: remark: other sources report otherwise
# [4] = molecular target: recombinant homotrimeric HA, A/Solomon Islands/3/06 H1N1 (Influenza A virus A/Solomon Islands/3/06 (H1N1)); assay: trimeric HA microarray, transfection set 5; conditions: remark: other sources report otherwise
# [5] = molecular target: recombinant homotrimeric HA, A/Wisconsin/67/05 H3N2 (Influenza A virus A/Wisconsin/67/05 (H3N2)); assay: trimeric HA microarray, transfection set 5; conditions: remark: other sources report otherwise
# [6] = molecular target: recombinant homotrimeric HA, A/South Carolina/1/18 H1N1 (Influenza A virus A/South Carolina/1/18 (H1N1)); assay: trimeric HA microarray, transfection set 5; conditions: remark: other sources report otherwise
Binder,FACS M2-HK MFI [1] [MFI],also measured
"3260_D19 (antibody, V domains shown) VH: DMQLVESGGGLVPPGGSLRLSCAASGFSVSDNYINWVRQAPGKGLDWVSVFYSADRTSYADSVKGRFTVSSHDSKNTVYLQMNSLRAEDTAVYYCARVQKSYYGMDVWGQGTTVTVSS VL: GIQMTQSPSSLSASVGDRVTITCRASQSISRYLNWYLQKPGKAPKLLISGASSLQSGVPSRFSGTGSGTEFTLTISSLQPEDFATYYCQQTFSIPLFGQGTKVEIK",846,–
"3242_P05 (antibody, V domains shown) VH: DMQLVESGGGLVPPGGSLRLSCAASGFSVSDNYINWVRQAPGKGLDWVSVFYSADRTSYADSVKGRFTVSSHDSKNTVYLQMNSLRAEDTAVYYCARVQKSYYGMDVWGQGTTVTVSS VL: GIQMTQSPSSLSASVGDRVTITCRASQSISRYLNWYLQKPGKAPKLLISGASSLQSGVPSRFSGTGSGTEFTLTISSLQPEDFATYYCQQTFSIPLFGQGTKVEIK",596,–
"3136_G05 (antibody, V domains shown) VH: QVQLQESGPGLVKPSETLSLTCSVSGGSISSDFWSWIRQPPGKGLEWIGYVYNRGSTKYSPSLKSRVTISADMSKNQFSLNMSSVTAADTAVYYCAKNGRSSTSWGIDVWGKGTTVTVSS VL: DIQMTQSPSSLSASVGDRLTITCRASQSISTYLHWYQQKPGKAPKLLIYAASSLQSGVPSRFSGSRSGTDFTLTISSLQPDDFATYYCQQSYSPPLTFGPGTKVDMK",109,–
"TCN-549 (5092_P04) (antibody, V domains shown) VH: QVQLVQSGAEVKKPGASVKVSCKASGYTFTGYYMHWVRQAPGQGLEWMGWINPNSGDTNYAQKFQGRVTMTRDTSITTAYMELSSLRSDDTAVYYCARDSPYSSSWSFFDYWGQGPLVTVSS VL: not shown",–,Trimeric HA Binding RLU [2]: 622 RLU; Trimeric HA Binding RLU [3]: 1080 RLU; Trimeric HA Binding RLU [4]: 640 RLU; Trimeric HA Binding RLU [5]: 51600 RLU
"3243_J07 (antibody, V domains shown) VH: QVQLQESGPGLLKPSDTLALTCTVSGGSITSDYWSWIRQPPGRGLDWIGFFYNGGSTKYNPSLKSRVTISADTSKNQLSLKLTSVTAADTGVYYCARHDVKFSGSYYVASWGQGTRVTVSS VL: DIQMTQSPSSLSASVGDRVTISCRASQSISTYLNWYQQQPGKAPKVLISGATNLQSGVPSRFSGSGSGTDFTLTISSLQPEDFATYYCQQSYNTPLIFGQGTKLEIK",131,–
"3253_P10 (antibody, V domains shown) VH: QVQLQESGPGLLKPSDTLALTCTVSGGSITSDYWSWIRQPPGRGLDWIGFFYNGGSTKYNPSLKSRVTISADTSKNQLSLKLTSVTAADTGVYYCARHDAKFSGSYYVASWGQGTRVTVSS VL: DIQMTQSPSSLSASVGDRVTISCRASQSISTYLNWYQQQPGKAPKVLISGATDLQSGVPSRFSGSGSGTDFTLTISSLQPEDFATYYCQQSYNTPLIFGQGTKLEIK",43,–
"3244_I10 (antibody, V domains shown) VH: QVQLQESGPGLLKPSDTLALTCTVSGGSITSDYWSWIRQPPGRGLDWIGFFYNGGSTKYNPSLKSRVTISADTSKNQLSLKLTSVTAADTGVYYCARHDAKFSGSYYVASWGQGTRVTVSS VL: DIQMTQSPSSLSASVGDRVTISCRASQSISTYLNWYQQQPGKAPKVLIFGATNLQSGVPSRFSGSGSGTDFTLTISSLQPEDFATYYCQQSYNTPLIFGQGTKLEIK",434,–
"3241_G23 (antibody, V domains shown) VH: QVQLQQSGPGLVKPSQTLSLTCTVSGGPVSGGGYSWNWIRQRPGQGLEWVGFMFHSGSPRYNPTLKSRITISVDTSKNLVSLKLSSVTAADTAVYFCARVGQMDKYYAMDVWGQGTTVTVSS VL: DIQMTQSPSSLSSSVGDRVTITCRASQSIGAYVNWYQQKAGKAPQVLIFGASNLQSGVPSRFSGSGSGTDFTLTISSLQPEDFATYFCQQTYSTPITFGQGTRLEIK",1700,–
"3139_P23 (antibody, V domains shown) VH: QVQLQESGPRLVKPSESLSLTCTVSGGSISNSFWGWIRQPPGEGLEWIGYVYNSGNTKYNPSLKSRVTISRDTSKSQLYMKLRSVTAADTAVYYCARHDDASHGYSISWGHGTLVTVSS VL: DIQMTQSPSSLSASVGDRVTITCRASQTISTYLNWYQQKSGKAPKLLIYAASGLQSGVPSRFSGSGSGTDFTLTISSLQPEDFATYFCQQSYNTPLTFGQGTKVEIK",110,–
"3245_O19 (antibody, V domains shown) VH: EVQLVESGGGLVQPGGSLRLSCTASGLSVSSTYMNWVRQAPGKGLEWVSVFYSETRTYYADSVKGRFTVSRHNSNNTLYLQMNSLRVEDTAVYYCARVQRLSYGMDVWGQGTTVTVSS VL: DIQMTQSPSSLSASVGDRVTITCRASQSISTYLNWYQKRPGKAPKLLVYGASTLQSGVPSRFSGSGSGTDFTLTIASLQPEDSATYYCQQTYSIPLFGQGTRLEIK",919,–
"3244_H04 (antibody, V domains shown) VH: EVQLVESGGGLVQPGGSLRLSCTASGLSVSSTYMNWVRQAPGKGLEWVSVFYSETRTYYADSVKGRFTVSRHNSNNTLYLQMNSLRAEDTAVYYCARVQRLSYGMDVWGQGTTVTVSS VL: DIQMTQSPSSLSASVGDRVTITCRASQSISTYLNWYQKRPGKAPKLLVYGASSLQSGVPSRFSGSGSGTDFTLTIASLQPEDSAVYYCQQTYSIPLFGQGTRLEIK",963,–
"3259_J21 (antibody, V domains shown) VH: QVQLQESGPRVVRPSETLSLTCTVSGGSISSYNWIWIRQPPGKGLEWIGHIYDYGRTFYNSSLQSRPTISVDASKNQLSLRLTSVTASDTAVYYCARPLGILHYYAMDLWGQGTTVTVSS VL: DIQMTQSPLSVSVSVGDRVTIACRASQSIDKFLNWYQQKPGKAPKLLIYGASNLHSGAPSRFSASGSGTDFTLTITNIQTEDFATYLCQQSFSVPAFGGGTKVEIK",1670,–
"TCN-544 (5082_A19) (antibody, V domains shown) VH: QVQLQESGPGLVKPSETLSLTCTVSRGSIGHYFWSWIRQPPGKGLEWIGYISYSGSTKYNPSLRSRVTISVDTSKNQFSLNLNSVTATDTALYYCAREDYDILTGAGPGMEVWGQGTTVTVSS VL: QSMLTQPPSASGTPGQRVTISCSGSSSNIGSNTVNWFKHLPGTAPKLLIYRNDLRPSGVPDRFSGSKSGTSASLAISGLQSEDEADYYCATWDDSLNGFYVFGTGTKVTVL",–,Trimeric HA Binding RLU [2]: 706 RLU; Trimeric HA Binding RLU [3]: 1000 RLU; Trimeric HA Binding RLU [4]: 997 RLU; Trimeric HA Binding RLU [6]: 1330 RLU
"3248_P18 (antibody, V domains shown) VH: QVQLQESGPGLVKPSETLSLTCTVSGGSISAYHWSWIRQPPGKGLEWIGHIFDSGSTYYNPSLKSRVTISLDASKNQLSLRLTSVTASDTAIYYCARPLGSRYYYGMDVWGQGTTVTVSS VL: DIQMTQSPSSLSASVGDRVTITCRASQSISRYLNWYQQKPGKAPKLLIYGASTLQNGAPSRFSGSGSGTDFTLTISSLQPEDSATYLCQQSYSVPAFGGGTKVEVK",967,–
"TCN-543 (5081_G23) (antibody, V domains shown) VH: QVHLVQSGAEVRKPGDSVKVSCKTSGYTFSTYPVAWVRQVPGQGLEWMGWISTYNGNTNFAQNFQGRVTLTTDTTTNTAYMEVRSLKFDDTAVYYCARVEGSYRDFWNNQNRFDPWGQGTLVTVSS VL: SYVLTQPPSVSVAPGQTARISCGGSNIGGKSVHWYQQKPGQAPVLVVYDDSGRPSGIPERFSGSNSGDTATLTISRVEAGDEADYFCQVWDNFGGVFGTGTKVTVL",–,Trimeric HA Binding RLU [2]: 2340 RLU; Trimeric HA Binding RLU [4]: 43500 RLU; Trimeric HA Binding RLU [6]: 28300 RLU; Trimeric HA Binding RLU [5]: 37000 RLU
"3252_C13 (antibody, V domains shown) VH: QVQLQESGPGLVKPSETLSLTCTVSGASISSDYWSWIRLPPGKGLEWIGYIYNRGSTKYTPSLKSRVTISLDTAENQFSLRLRSVTAADTAIYYCARHVGGHTYGIDYWGQGTLVTVSS VL: DIQMTQSPSSLSASVGDRVTITCRASQSISNYLNWYQHKPGEAPKLLNYAASSLQSGVPSRFSASGSGTDFTLTISSLQPEDFATYYCQQSYNTPITFGQGTRLEIK",449,–
"3420_I23 (antibody, V domains shown) VH: QVQLQESGPGLVKPSETLSVTCKVSGDSISSYSWSWIRQPPGKGLEWVGYLYYSGSTKYNPSLKSRTTISVDTSTNQLSLKLSFVTAADTAVYFCARTGSESTTGYGMDVWGQGTTVTVSS VL: DIQMTQSPSSLSASVGDRVTITCRASQSISTYLNWYQQKPGKAPKLLIYAASSLHSGVPSRFSGSGSGTDFALTISSLQPEDFATYYCQQSYSPPITFGQGTRLEIK",112,–
"3362_B11 (antibody, V domains shown) VH: QVQLQASGPGLVKPSETLSLTCTVSGDSITSGAYYWTWIRQHPGKGLEWIGYIYYSGNTYYNPSLKSRVTISLDTSKNQFSLKVNSVTAADTAVYYCARAASTSVLGYGMDVWGQGTTVTVSS VL: DIQMTQSPSSLSASVGDRVTITCRASQSISRYLNWYQQEPGKAPKLLVYAASSLQSGVPSRFSGSGSGTDFTLTISSLQPEDFATYYCQQSYSTPLTFGQGTRLEIK",218,–
"3255_J06 (antibody, V domains shown) VH: QVQLQESGPGLVKPSETLSLTCTVSGASISSDYWSWIRLPPGKGLEWIGYIYNRGSTKYTPSLKSRVTISLDTAENQFSLRLRSVTAADTAVYYCARHVGGHTYGIDYWGQGTLVTVSS VL: DIQMTQSPSSLSASVGDRVTITCRASQSISNYLNWYQHKPGEAPKLLNYAASSLQSGVPSRFSASGSGTDFTLSISGLQPEDFATYYCQQSYNTPITFGPGTRLEIK",442,–
